Data reported in the supplement of paper PMC7125110.
± gives the standard error. For some of these results: Fewer inactive variants are shown than the library holds.

B1: glmS ribozyme (parent)
chain: AUAAAAGCGCCAGAACUACAGAAAUGUAGUUGACGAGGAGGAGGUUUAUCGAAUUUUCGGCGGAUGCCUCCAAA

Experiments:
Settings in all cases: with glucosamine-6-phosphate
[1] = variants of: B1; test: kcat; higher = faster cleavage; RNA array
In short: (§1)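 Barcoded glmS ribozyme variants on sequenced MiSeq chips were transcribed in situ by E. coli RNA polymerase and tracked through a hybridised Cy3 probe at 37 °C. Glucosamine-6-phosphate (40 μM to 10 mM) in HEPES/KCl/Mg(OAc)2 buffer was flowed in, and tiles were imaged over ~14 h. Signals were normalised to baseline and to non-cleaving reference variants; per-tile medians were fit to one- or two-exponential decays to give kobs. kcat and KM came from weighted Michaelis–Menten fits across concentrations.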

[2] = variants of: B1; test: KM; higher = weaker cofactor use; RNA array
In short: as §1

[3] = variants of: B1; test: self-cleavage kobs at 640 uM GlcN6P; higher = faster cleavage; RNA array
In short: as §1

[4] = variants of: B1; test: self-cleavage kobs at 10000 uM GlcN6P; higher = faster cleavage; RNA array
In short: as §1

[5] = variants of: B1; test: self-cleavage kobs at 2500 uM GlcN6P; higher = faster cleavage; RNA array
In short: as §1

[6] = variants of: B1; test: self-cleavage kobs at 40 uM GlcN6P; higher = faster cleavage; RNA array
In short: as §1

[7] = variants of: B1; test: self-cleavage kobs at 160 uM GlcN6P; higher = faster cleavage; RNA array
In short: as §1

Variant	kcat [1]	KM [2]	self-cleavage kobs at 640 uM GlcN6P [3]	self-cleavage kobs at 10000 uM GlcN6P [4]	self-cleavage kobs at 2500 uM GlcN6P [5]	self-cleavage kobs at 40 uM GlcN6P [6]	self-cleavage kobs at 160 uM GlcN6P [7]
G38A U56A	< 1e-05 s⁻¹	52.5 ± 11 µM	< 1e-05 s⁻¹	< 1e-05 s⁻¹	–	–	–
G40A A48U	0.000176 ± 1.7e-05 s⁻¹	2780 ± 590 µM	2.83e-05 ± 8.5e-06 s⁻¹	0.000133 ± 1.7e-05 s⁻¹	9.03e-05 ± 1.2e-05 s⁻¹	–	–
U30G G32C	0.000158 ± 2.5e-05 s⁻¹	–	–	0.000134 ± 1.6e-05 s⁻¹	0.000149 ± 3e-05 s⁻¹	–	–
C58U C70G	1.93e-05 ± 3.5e-06 s⁻¹	–	2.38e-05 ± 9.2e-06 s⁻¹	–	2.22e-05 ± 1e-05 s⁻¹	–	–
G35U C67G	1.19e-05 ± 2.3e-06 s⁻¹	–	–	–	< 1e-05 s⁻¹	–	–
C11U U55G C70G	9.32e-05 ± 8.6e-06 s⁻¹	–	7.75e-05 ± 2.5e-05 s⁻¹	8.94e-05 ± 1.7e-05 s⁻¹	–	–	–
G13U A42G U45A	0.00154 ± 0.00051 s⁻¹	–	0.000169 ± 6.2e-05 s⁻¹	0.00104 ± 0.00021 s⁻¹	0.000951 ± 0.00031 s⁻¹	–	–
A14G G63U	< 1e-05 s⁻¹	–	< 1e-05 s⁻¹	–	< 1e-05 s⁻¹	< 1e-05 s⁻¹	< 1e-05 s⁻¹
G32U G63A	< 1e-05 s⁻¹	–	< 1e-05 s⁻¹	< 1e-05 s⁻¹	< 1e-05 s⁻¹	–	–
C11U U31C A52U	< 1e-05 s⁻¹	–	–	–	–	–	–
A39U A53G	0.0183 ± 0.0065 s⁻¹	1410 ± 620 µM	0.0052 ± 0.00085 s⁻¹	0.0166 ± 0.0029 s⁻¹	0.0187 ± 0.0064 s⁻¹	0.000648 ± 6.7e-05 s⁻¹	0.00141 ± 0.00023 s⁻¹
G13C U69C	7.75e-05 ± 1.1e-05 s⁻¹	–	7.04e-05 ± 2.6e-05 s⁻¹	8.36e-05 ± 1.7e-05 s⁻¹	5.9e-05 ± 1.8e-05 s⁻¹	–	–
A53C C58A	5.04e-05 ± 1.4e-05 s⁻¹	–	–	3.91e-05 ± 8.6e-06 s⁻¹	1.94e-05 ± 7.6e-06 s⁻¹	–	–
U31C G40U U47A	0.000144 ± 4.5e-05 s⁻¹	–	–	0.000116 ± 2.2e-05 s⁻¹	0.000154 ± 4.5e-05 s⁻¹	–	–
G37C U47G U69G	7.04e-05 ± 2.8e-05 s⁻¹	–	5.97e-05 ± 2e-05 s⁻¹	–	0.000138 ± 4.1e-05 s⁻¹	–	7.9e-05 ± 2.3e-05 s⁻¹
U55G G60U G63A G66C	1.16e-05 ± 1e-06 s⁻¹	–	–	–	< 1e-05 s⁻¹	–	–
G66A C67G	0.00418 ± 0.0021 s⁻¹	–	0.000703 ± 0.0001 s⁻¹	0.00412 ± 0.00067 s⁻¹	0.00281 ± 0.00066 s⁻¹	0.000102 ± 1.4e-05 s⁻¹	0.000414 ± 5.4e-05 s⁻¹
U54C U55C	0.014 ± 0.0045 s⁻¹	2720 ± 1100 µM	0.00279 ± 0.00037 s⁻¹	0.0111 ± 0.0019 s⁻¹	0.00663 ± 0.0011 s⁻¹	0.000294 ± 4.1e-05 s⁻¹	0.000636 ± 8.9e-05 s⁻¹
